In experiment [1] the target is Candidatus Methanomethylophilus alvus pyrrolysyl-tRNA synthetase (MaPylRS) (Candidatus Methanomethylophilus alvus) (UniProt M9SC49). As to the kind of experiment: AUC; sedimentation velocity, 20°C, 30 000 rpm; 50 mM MES pH 5.2, 500 mM NaCl, 10 mM MgCl2; multiple concentrations (0.3, 0.6 and 1.2 mg/ml).
Experiment [2] has the same target. Briefly: dynamic light scattering; Nano-S Zetasizer, five measurements; sample at 16 μM (0.5 mg/ml); dimer assigned from HullRad predictions on the crystal structure.

The term stoichiometry N denotes the number of molecules, sites or subunits per partner or assembly. Consider “Candidatus Methanomethylophilus alvus pyrrolysyl-tRNA synthetase (MaPylRS) (from UniProt M9SC49 1-275) (enzyme)”, for which the stoichiometry N in experiment [1] and in experiment [2] was 2 in each case.

Values taken from paper PMC10810272.
